US11174311B2, “Antibody against trimeric TNFα complex” (UCB BIOPHARMA SRL, priority 2016, dated 2021)
“Also recorded” adds a separate entry of the source. Blank lines part the entries; values can stand above or below the molecule they belong to.

Assays:
[1] = target: T1, soluble form of TNFα (Homo sapiens, UniProt P01375); assay: SPR on Biacore 4000 against immobilised soluble TNFα; assay type: binding; conditions: concentration of up to 100 μM
T1 construct: the immobilised soluble form of CD40L and the soluble form of TNFα
Description: In another experiment, BIO8898 was tested against the immobilised soluble form of CD40L and the soluble form of TNFα by SPR on a Biacore 4000 machine.

[2] = target: T2, Human TNFα (Homo sapiens, UniProt P01375); assay: Single cycle kinetics by surface plasmon resonance; assay type: binding; parameters: made in house
Description: For single cycle kinetics profiling of compound (1) to either directly immobilised TNFα or CA1974-captured TNFα surface plasmon resonance was performed at 25° C. using a BIAcore T200 (GE Healthcare). Human TNFα was tethered onto flow-channel (Fc)2 (2000 RU). CA1974 IgG (>10,000 response units) was tethered onto Fc3,4 and Fc1 blank immobilisation on a CMS Sensor Chip (GE Healthcare) via amine coupling chemistry. The surface was allowed to stabilise in HBS-P buffer (10 mM HEPES, pH 7.4, 0.15 M NaCl, 0.0005% (v/v) surfactant P20-GE Healthcare)+5% DMSO was used as the running buffer. Human TNFα was flowed over Fc4 to a capture level of ˜2,000 RU. Compound (1) was flowed over all four flow cells in series (1.875 μM, 3.75 μM, 7.5 μM and 30 μM) at 100 μl/min. Double referenced background-subtracted binding curves were produced using the T200 Evaluation software (version 1.0) following standard procedures.
Target sequence in this assay (P01375 77-233 limits assumed): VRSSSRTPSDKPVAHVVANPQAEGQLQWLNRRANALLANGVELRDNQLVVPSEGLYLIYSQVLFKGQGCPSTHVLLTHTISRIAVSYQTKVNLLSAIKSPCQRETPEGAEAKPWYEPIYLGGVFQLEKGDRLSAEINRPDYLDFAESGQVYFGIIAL

[3] = target: human TNFα complexed with compound (1) (Homo sapiens, UniProt P01375); assay: Size exclusion chromatography (HPLC) of mouse Fab with TNFα-compound complex; assay type: binding
[4] = target: T2, Human TNFα; assay: FACS assay, HEK JumpIn cells overexpressing TNF-RI, receptor-bound TNFα; assay type: cell-based; parameters: host or cells: HEK JumpIn cells (express the partner TNF-RI only); conditions: antibody at 1 and 10 μg/ml
Description: Recombinant antibodies were also tested for binding to compound-distorted TNFα in a FACS assay using human embryonic kidney (HEK) JumpIn cells, which overexpress TNF-RI after induction with doxycycline at 1 μg/ml for 2.5 hours. HEK cells were trypsinised and incubated for 2 h in medium to allow recovery of digested TNFRI levels. Human TNFα at 2 μg/mL was pre-incubated with 40 μM compound (1) or 0.4% DMSO for 1 h at 37° C. The pre-incubation mix was added to the cells for 1 h on ice (dilution 1:4, final concentrations: 0.5 μg/mL human-TNFα+/−[…] or 0.1% DMSO). […] (Secondary antibody: anti-mouse-Alexa488), before analysis for receptor-bound TNFα.
Target sequence in this assay (P01375 77-233 limits assumed): as above
Target sequence in this assay (P19438 30-455 partner): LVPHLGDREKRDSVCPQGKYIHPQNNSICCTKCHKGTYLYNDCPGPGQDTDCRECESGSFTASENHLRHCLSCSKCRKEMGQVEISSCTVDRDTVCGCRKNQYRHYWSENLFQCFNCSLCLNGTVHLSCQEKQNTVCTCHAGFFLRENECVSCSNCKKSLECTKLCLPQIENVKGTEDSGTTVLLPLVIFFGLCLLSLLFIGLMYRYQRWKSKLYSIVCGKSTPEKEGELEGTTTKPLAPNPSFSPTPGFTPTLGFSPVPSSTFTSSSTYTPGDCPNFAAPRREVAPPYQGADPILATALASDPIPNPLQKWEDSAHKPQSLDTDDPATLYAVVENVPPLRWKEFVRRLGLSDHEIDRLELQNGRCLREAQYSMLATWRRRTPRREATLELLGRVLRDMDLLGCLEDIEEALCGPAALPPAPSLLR

[5] = system: membrane-bound TNFα; assay: FACS assay, engineered NS0 cell line overexpressing membrane TNFα; assay type: cell-based; conditions: Fab fragments
Description: An engineered NS0 cell line, which overexpresses membrane TNFα, due to knock-out of the TACE cleavage site was incubated with 0.001-10 μM compound (1) or 0.1% DMSO for 1 h at 37° C. Cells were washed, fixed and stained with antibody Fab fragments at 0.01 or 0.1 μg/ml for 1 hour on ice. (Secondary antibody was anti-mouse Fab-DyeLight488 from Jackson ImmunoResearch).

T1 sequence (P01375 77-233 limits assumed): as the sequence (P01375 77-233 limits assumed) above
membrane-bound TNFα, sequence (P01375 90-233 limits assumed): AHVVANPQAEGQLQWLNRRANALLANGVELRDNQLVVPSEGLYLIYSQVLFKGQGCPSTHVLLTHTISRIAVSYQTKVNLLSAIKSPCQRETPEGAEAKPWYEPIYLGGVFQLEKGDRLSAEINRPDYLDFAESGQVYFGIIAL
human TNFα complexed with compound (1), sequence (P01375 77-233 limits assumed, one chain of several): as the sequence (P01375 77-233 limits assumed) above

- binding to TNFα [1]: not to bind; also recorded: no binding
Molecule: O=C(NCc1cccc(-c2ccccc2)c1)c1cc(-c2cc(C(=O)NC(C(=O)O)C3CCCCC3)nc(C(=O)N3CCCC3CN3CCCC3)c2)cc(C(=O)N2CCCC2CN2CCCC2)n1 (centres unmarked) [BIO8898]

- binding kinetics profile ([2]; TNFα captured via antibody CA1974): fast on-fast off
- binding kinetics profile ([2]; directly immobilised apo-TNF): slow on-slow off
Molecule: Cc1ccc(C)c(Cn2c(C(O)c3ccncc3)nc3ccc(-c4cnn(C)c4)cc32)c1 (centres unmarked) [compound (1)]

- stoichiometry Fab : TNFα trimer [3]: 1 Fab: 1 TNFα trimer
- staining with the DMSO control ([4]; TNFα pre-incubated with DMSO): no staining
B1: CA185_01979: rat-derived conformation-selective antibody to TNFα-compound complex, LCVR SEQ ID NO: 22, HCVR SEQ ID NO: 23; used as mouse IgG or mouse Fab (antibody, V domains shown)
VH: EVHLVESGPGLVKPSQSLSLTCSVTGYSITNSYWDWIRKFPGNKMEWMGYINYSGSTGYNPSLKSRISISRDTSNNQFFLQLNSITTEDTATYYCARGTYGYNAYHFDYWGRGVMVTVSS
VL: DIQMTQSPASLSASLEEIVTITCQASQDIGNWLSWYQQKPGKSPHLLIYGTTSLADGVPSRFSGSRSGTQYSLKISGLQVADIGIYVCLQAYSTPFTFGSGTKLEIK
modifications: HCVR of 1979; LCVR of 1979
notes: used as mouse IgG or mouse Fab
- staining / recognition of receptor-bound TNFα ([4]; TNFα pre-incubated with compound (1)): only recognise TNFα which has been pre-incubated with compound (1)
- staining with the DMSO controls ([5]; cells incubated with 0.1% DMSO): no staining
- staining / recognition of membrane TNF ([5]; cells incubated with compound (1)): only recognise TNF which has been pre-incubated with compound (1)
